Earlier results as cited in patent US7550436B2, “Compositions containing peptide and electrolyte excretion promoter and foods containing the same” (Kracie Pharma, Ltd., priority 2000, dated 2009).
No end group written: not given here.

biological target: angiotensin converting enzyme (Homo sapiens, UniProt P12821); conditions: reported in JP-B-60-23085, JP-B-61-51562, JP-B-61-51564, JP-B-5-21092
Sequence (P12821 30-1306, species assumed): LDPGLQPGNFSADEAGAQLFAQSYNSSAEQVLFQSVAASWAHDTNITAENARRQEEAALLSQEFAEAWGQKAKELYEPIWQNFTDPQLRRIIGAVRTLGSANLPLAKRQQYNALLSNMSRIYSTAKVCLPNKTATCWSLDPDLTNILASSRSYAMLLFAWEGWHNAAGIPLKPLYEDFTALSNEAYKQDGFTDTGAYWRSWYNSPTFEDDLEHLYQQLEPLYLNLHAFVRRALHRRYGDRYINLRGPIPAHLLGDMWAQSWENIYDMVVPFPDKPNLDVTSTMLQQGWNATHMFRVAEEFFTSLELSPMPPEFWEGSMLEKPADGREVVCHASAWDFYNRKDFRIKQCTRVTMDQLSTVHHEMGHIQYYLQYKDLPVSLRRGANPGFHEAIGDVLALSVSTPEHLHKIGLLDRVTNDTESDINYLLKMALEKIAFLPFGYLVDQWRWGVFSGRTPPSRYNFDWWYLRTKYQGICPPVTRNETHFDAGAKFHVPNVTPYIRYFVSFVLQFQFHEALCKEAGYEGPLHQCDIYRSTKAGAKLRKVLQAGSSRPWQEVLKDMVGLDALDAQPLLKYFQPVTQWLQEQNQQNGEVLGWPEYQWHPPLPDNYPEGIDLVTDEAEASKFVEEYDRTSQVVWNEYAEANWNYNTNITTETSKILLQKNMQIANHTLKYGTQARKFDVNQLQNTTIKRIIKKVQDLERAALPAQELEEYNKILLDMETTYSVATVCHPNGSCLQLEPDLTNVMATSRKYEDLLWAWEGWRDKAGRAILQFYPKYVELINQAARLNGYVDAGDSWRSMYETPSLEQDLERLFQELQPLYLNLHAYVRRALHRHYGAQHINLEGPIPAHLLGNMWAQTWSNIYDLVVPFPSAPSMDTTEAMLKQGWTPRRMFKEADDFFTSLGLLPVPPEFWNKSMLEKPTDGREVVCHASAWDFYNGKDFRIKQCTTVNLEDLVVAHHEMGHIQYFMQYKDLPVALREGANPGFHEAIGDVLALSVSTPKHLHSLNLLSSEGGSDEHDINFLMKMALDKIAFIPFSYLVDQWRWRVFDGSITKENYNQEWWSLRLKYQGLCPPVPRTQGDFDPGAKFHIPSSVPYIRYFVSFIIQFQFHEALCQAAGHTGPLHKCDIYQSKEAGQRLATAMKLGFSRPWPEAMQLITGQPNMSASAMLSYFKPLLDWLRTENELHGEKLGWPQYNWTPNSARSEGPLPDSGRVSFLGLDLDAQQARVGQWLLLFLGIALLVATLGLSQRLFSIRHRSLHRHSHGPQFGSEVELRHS

Inhibitory activity to angiotensin converting enzyme (ACE), inhibitory activity:
AVPYPQR [Cβ7, ID No. 2, casein-origin peptide]
FFVAPFPEVFGK [Example C12, ID No. 1, casein-origin peptide]
TTMPLW [Example C6, ID No. 3, casein-origin peptide]
